Ends that are not written are not given here. Tz4 = ring closure through triazole, 4-carbon linker to triazole
Biological target: full-length Akt2 protein (Homo sapiens (Human)) (UniProt P31751)
Test: affinity estimation from immunoassays capturing full-length Akt2 protein (FIG. 6D)

fold higher affinity than the corresponding linear peptide: 30 fold
B1: Cy(YYTYT (SEQ ID NO:4)-Tz4) (peptide)
peptide: YYTYT
modifications: triazole (positions not given here) via Tz4; also: ring closed via triazole between non-natural alkyne and azide residues flanking the sequence, variable region only, constant region not given here

Source: patent US20220380409A1
